Measured values published in the supplement of paper PMC10567573.

B1: TOR1AIP2 (parent)
chain: HHVADAYTSSQKVSPIQIDGAGRT

Variants of: B1
Assay: protein stability index of a GFP-peptide fusion (GPS, HEK-293T) (PSI 1-6); higher = more stable
Settings: c terminus: a fixed tail appended
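Also: lentivirally expressed fusions sorted by FACS into six bins by GFP to DsRed ratio, PSI derived from sequencing read proportions per bin multiplied by bin number.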

Protein stability index of substitutions, site by site:
T24: I 3 | P 3.46 | D 4.18 | S 3.58 | F 2.81 | N 3.97 | C 3.43 | G 3.85 | K 3.9 | M 2.98 | Q 3.3 | E 4 | W 2.97 | Y 2.93 | A 3.36
R23: F 3.12 | G 3.68 | T 3.47 | Q 3.71 | C 3.68 | S 3.83 | Y 2.94 | L 3.36 | N 3.81 | H 3.76 | D 4.11 | I 3.45 | A 3.86
H1: S 4.3 | F 2.69 | W 3.68 | Y 3.09 | R 4.33 | G 4.43 | N 4.53 | V 3.86 | P 3.85 | M 3.93 | A 4.54 | L 3.81 | E 4.66 | I 3.14 | C 3.67 | K 3.94
Q11: F 2.65 | A 3.23 | C 3.06 | W 2.21 | I 3 | G 3.66 | E 3.97 | V 2.89 | M 3.15 | S 3.44 | R 2.95 | Y 2.96 | D 4.26 | P 3.74
P15: G 4.04 | V 3.14 | T 3.28 | Q 3.43 | Y 2.55 | C 3.66 | M 3.25 | W 2.63 | K 3.33 | R 3.26 | E 3.82 | H 3.08 | A 3.66 | S 3.41 | D 3.81
A21: D 4.16 | P 3.48 | Q 3.85 | S 3.67 | G 3.62 | L 3.42 | F 3.18 | I 3.34 | V 3.34 | C 3.48 | N 3.44 | K 3.42
S10: H 3.17 | A 3 | K 3.46 | D 4.33 | C 2.96 | P 3.87 | M 2.93 | N 3.21 | Y 2.94 | R 2.64 | V 2.9
A6: S 4.14 | D 4.19 | W 2.19 | R 3.95 | C 3.98 | Y 3.32 | E 4.77 | I 3.67 | M 3.46 | G 4.39 | L 3.2 | K 4.03 | V 3.48
G20: F 3.06 | K 3.38 | D 4.01 | Q 3.7 | L 2.78 | P 3.28 | H 3.31 | S 3.23 | Y 2.83 | V 3.33 | I 3.04 | E 3.36 | T 3.48 | N 3.58
K12: N 3.67 | F 2.47 | Q 3.86 | D 3.88 | M 3.4 | R 3.34 | V 3.47 | T 3.59 | H 3.54 | P 4.16 | S 3.77 | G 3.48 | L 3.24 | C 3.06
Y7: T 4.98 | D 4.67 | G 4.6 | F 2.73 | M 4.7 | E 4.97 | L 4.55 | N 4.89 | P 4.91 | W 2.12 | C 4.19 | R 4.43 | K 4.65 | I 4.75 | S 4.87 | Q 4.5
D19: H 2.87 | L 2.36 | Y 2.47 | W 1.94 | P 3.06 | M 2.7 | A 3.01 | N 3.34 | V 3.28 | G 3.4 | C 3.1 | K 3.14 | S 3.2
T8: E 4.38 | H 4.14 | P 4.38 | F 3.27 | I 2.82 | Q 3.85 | V 3.3 | W 2.86 | G 3.87 | N 3.88 | R 3.49 | M 3.89 | K 3.49 | L 4.14
G22: E 3.93 | Y 2.82 | I 3.26 | W 2.46 | S 3.36 | P 3.61 | M 3.32 | L 2.92 | A 3.58 | K 3.72 | F 2.7 | D 3.99 | N 3.25 | H 3.47 | T 3.09
D5: W 4.17 | V 2.7 | E 2.73 | K 3.19 | C 2.46 | R 3.6 | A 2.63 | H 2.38 | S 2.72 | F 2.24 | I 2.5 | P 3.54
H2: D 4.75 | Y 3.4 | Q 2.51 | L 1.86 | T 3.81 | A 4.01 | F 3.77 | C 3.5 | E 4.74 | G 4.15 | I 2.08 | P 3.87 | W 2.96
A4: L 3.99 | D 4.76 | G 4.25 | Y 4.04 | C 2.84 | H 3.43 | Q 3.67 | I 3.01 | K 3.86 | P 2.34 | V 3.39
V3: T 3.1 | H 2.82 | Q 2.63 | S 2.46 | R 2.95 | P 4.2 | A 1.62 | E 3.12 | D 2.96 | M 2.92 | F 2.34 | N 2.04 | Y 1.51 | G 2.73
S14: A 3.9 | Q 3.35 | M 3.25 | I 2.94 | V 3.46 | C 3.22 | K 3.45 | W 2.77 | R 3.26 | H 3.44 | L 3.42 | D 4.07
I18: S 3.72 | T 3.87 | P 4.15 | K 3.98 | D 4.28 | L 3.57 | V 3.76 | H 3.85 | N 3.96 | G 3.47 | M 3.84 | C 3.61 | E 3.73 | R 3.58 | F 2.9 | Q 3.75
I16: K 4.04 | S 3.78 | Y 3.69 | C 3.31 | F 3.49 | N 3.88 | G 3.78 | E 4.51 | T 4.13 | R 3.94 | P 4.09 | D 4.46 | M 3.38 | L 3.6
S9: I 2.42 | R 3.75 | K 4.43 | P 2.58 | C 1.95 | Y 3.78 | N 3.54 | L 3.28 | Q 3.15 | G 3.79 | A 2.91 | W 2.65 | V 1.62 | E 3.11 | T 2.82 | H 3.77 | D 4.04
V13: S 3.79 | D 4 | Q 3.85 | F 3.21 | M 3.83 | E 3.96 | I 2.83 | A 3.27 | C 2.92 | Y 3.43 | W 3.16 | R 3.59 | H 3.76
Q17: V 3.49 | C 3.26 | Y 2.66 | A 3.55 | R 3.72 | F 3.05 | G 3.29 | M 2.99 | E 3.65 | S 3.69 | T 3.41 | I 3.05 | W 2.31 | P 3.93 | H 3.17 | K 3.63 | N 3.64
